According to publication PMC2878558 (The Journal of Biological Chemistry, 2010):

B2: VAMP7(1–118) (domain or fragment, human, UniProt P51809 1-118, looked up)
chain: MAILFAVVARGTTILAKHAWCGGNFLEVTEQILAKIPSENNKLTYSHGNYLFHYICQDRIVYLCITDDDFERSRAFNFLNEIKKRFQTTYGSRAQTALPYAMNSEFSSVLAAQLKHHS

Columns and labels:
VAMP7(1–118) = molecular target: B2; assay: NMR titration
SEC-MALS = molecular target: the molecule itself; assay: SEC-MALS

B1: VAMP7(119–180) (domain or fragment, human, UniProt P51809 119-180, looked up)
chain: ENKGLDKVMETQAQVDELKGIMVRNIDLVAQRGERLELLIDKTENLVDSSVTFKTTSRNLAR
binding result (VAMP7(1–118)): binds

B2
stoichiometry N (SEC-MALS): 2
